Test results from US20160311878A1 (SAMSUNG ELECTRONICS, published 2016).

Biological target: T1, full-length HDM2 (NP_002383.2) (human, UniProt Q00987-11 1-497, limits assumed)
T1 construct: it was coated on the ELISA plate at 20 ug/ml; also called full-length MDM2
Assay: ELISA; full-length HDM2 coated on plate, GST fusion at 0-5.5 uM, anti-GST-HRP detection (FIG. 4)
Experimental: The well was incubated overnight at 4° C. Thereafter, bindings between other proteins were blocked with 300 ul of 3% skim milk w/PBS-T (at room temperature for 3 hours).
One hour after, the plate was washed with 300 uL of PBS-T, and treated with 100 uL of HRP conjugated-anti-GST antibody (Abcam, 1:2000). After the reaction at room temperature for one hour, the plate was treated with TMB substrate (Pierce, 100 uL) and left for 5 minute until coloring reaction occur, and then, treated with stop solution (Pierce, 100 uL). Thereafter, absorbance at 450 nm was measured using microwell reader (Molecular Device, 340PC384).

T1 sequence (Q00987 other isoform, or with tags, fused parts or gaps limits assumed): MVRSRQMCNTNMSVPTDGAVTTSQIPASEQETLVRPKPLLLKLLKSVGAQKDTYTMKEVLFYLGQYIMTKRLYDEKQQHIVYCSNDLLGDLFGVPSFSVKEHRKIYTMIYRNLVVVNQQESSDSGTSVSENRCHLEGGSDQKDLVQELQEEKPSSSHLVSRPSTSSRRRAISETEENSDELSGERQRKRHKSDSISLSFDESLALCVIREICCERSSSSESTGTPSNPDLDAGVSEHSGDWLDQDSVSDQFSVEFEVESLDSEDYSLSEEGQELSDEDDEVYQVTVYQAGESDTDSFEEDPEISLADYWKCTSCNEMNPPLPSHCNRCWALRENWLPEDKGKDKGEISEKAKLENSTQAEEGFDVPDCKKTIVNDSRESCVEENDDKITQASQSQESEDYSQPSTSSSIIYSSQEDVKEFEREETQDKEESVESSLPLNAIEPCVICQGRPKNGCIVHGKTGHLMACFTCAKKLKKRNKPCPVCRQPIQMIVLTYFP

Row | binding result | Binder
1 | binds | GST-M25 (modified three-helix bundle protein M25, an a3D variant, fused to GST) (designed binder, Tested as a GST fusion in ELISA and detected with an HRP-conjugated anti-GST antibody; GST is placed at the N-terminus from the name GST-M25 and the pGEX vector; not shown: GST carrier (from the GST cds of pGEX-4T3, GE Healthcare) and the vector junction between GST and M25) MGSWFEFAWRLLEIKTRLQALGGSEAELAAFEKEIAAFESELQAYKGKGNPEVEALRFEAYWIRLELQAYRHN
2 | binds | GST-M11 (modified three-helix bundle protein M11, an a3D variant, fused to GST) (designed binder, Tested as a GST fusion in ELISA and detected with an HRP-conjugated anti-GST antibody; GST is placed at the N-terminus from the name GST-M11 and the pGEX vector; not shown: GST carrier (from the GST cds of pGEX-4T3, GE Healthcare) and the vector junction between GST and M11) MGSWAEFSQRLFAIYWRLLALGGSEAELAAFEKEIAAFESELQAYKGKGNPEVEALRKEAAAIRDELQAYRHN
